This assay addresses 新冠病毒SARS-CoV-2原始毒株(WT)S1抗原 (SARS-CoV-2, UniProt P0DTC2 16-685).

Experimental findings from CN114573691A (EIGHT HOSPITALS IN AFFILIATED CITY OF GUANGZHOU MEDICAL; …, dated 2022) are described below.

B1: 中和抗体YB9-258 (antibody, V domains shown)
VH: EVQLVESGGGLIQPGGSLRLSCAASGLTVSSNYMHWVRQAPGKGLEWVSVLYAGGSAFYADSVKGRFTISRNNSKNTLYLQMNSLRAEDTAIYYCARGLGDYLDSWGQGTLVTVSS
VL: DIQMTQSPSSVSASVGDRVTITCRASQGIGSWLAWYQQKPGKAPQLLIYAASTLQSGVPPRFSGSGSGTDFTLTITSLQPEDFASYYCQQANSVLALTFGGGTKVEIK
Consider B1, for which the Kd stood at 71.7 pM.

B2: 中和抗体YB13-208 (antibody, V domains shown)
V domain 1: QITLKESGPTLVKPTQTLTLTCTFSGLSLSTSGVSVGWIRQPPGKAPEWLALIYWDDDKRYSPSLTSRLSITKDTSKNQVVLTMTNMDPVDTATYYCAHPRYYGDSSGYYWIWGQGTMVTVSS
V domain 2: SYELTQPPSVSVSPGQTARITCSGDALPKQYAYWYQQKPGQAPVVVMYKTSERPSGIPERFSGSSSGTTVTLTISGVQAEDEADYYCQSADSSGFYVFGTGTQVTVL
B2 returned a Kd of 82 pM.
